Reference: the supplement of paper PMC9112550, “Optimization of the antimicrobial peptide Bac7 by deep mutational scanning” (BMC Biology, 2022)

Test system: Escherichia coli TOP10
Assay: shrunken log2 fold change of peptide-encoding DNA abundance (4.5 h post-induction vs induction); higher = less antimicrobial activity (less host growth inhibition)
Details: time post-induction: 4.5 h; library: site-saturation at positions 5, 18, 19, 20
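Note: peptides expressed intracellularly from a pBAD plasmid library in pooled LB shake-flask culture, induced with 0.3% L-arabinose, DNA abundance read by NGS, three biological replicates, DESeq2 with apeglm shrinkage.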

RRIRPRPPRLPRPRPRPIGAPRP
shrunken log2 fold change: 0.288

RRIRPRPPRLPRPRPRPIGPPRP
shrunken log2 fold change: 0.162

RRIRPRPPRLPRPRPRPIGYPRP
shrunken log2 fold change: -0.0758

RRIRPRPPRLPRPRPRPIHGPRP
shrunken log2 fold change: -0.00809

RRIRPRPPRLPRPRPRPIHSPRP
shrunken log2 fold change: -0.0694

RRIRPRPPRLPRPRPRPIKEPRP
shrunken log2 fold change: -0.00478

RRIRPRPPRLPRPRPRPILMPRP
shrunken log2 fold change: -0.112

RRIRPRPPRLPRPRPRPINFPRP
shrunken log2 fold change: -0.168

RRIRPRPPRLPRPRPRPINTPRP
shrunken log2 fold change: -0.844

RRIRPRPPRLPRPRPRPIQHPRP
shrunken log2 fold change: -0.053

RRIRPRPPRLPRPRPRPIQIPRP
shrunken log2 fold change: -0.119

RRIRPRPPRLPRPRPRPIQYPRP
shrunken log2 fold change: -0.642

RRIRPRPPRLPRPRPRPIRDPRP
shrunken log2 fold change: -0.015

RRIRPRPPRLPRPRPRPIRVPRP
shrunken log2 fold change: -0.262

RRIRPRPPRLPRPRPRPISFPRP
shrunken log2 fold change: -0.101

RRIRPRPPRLPRPRPRPISRPRP
shrunken log2 fold change: 0.121

RRIRPRPPRLPRPRPRPIVPPRP
shrunken log2 fold change: -0.208

RRIRPRPPRLPRPRPRPIVSPRP
shrunken log2 fold change: -0.117

RRIRPRPPRLPRPRPRPIWIPRP
shrunken log2 fold change: -0.308

RRIRPRPPRLPRPRPRPIYAPRP
shrunken log2 fold change: -0.0839

RRIRPRPPRLPRPRPRPIYFPRP
shrunken log2 fold change: -0.205

RRIRPRPPRLPRPRPRPKAIPRP
shrunken log2 fold change: 0.11

RRIRPRPPRLPRPRPRPKCGPRP
shrunken log2 fold change: 0.574

RRIRPRPPRLPRPRPRPKCTPRP
shrunken log2 fold change: -0.0758

RRIRPRPPRLPRPRPRPKFDPRP
shrunken log2 fold change: 0.163

RRIRPRPPRLPRPRPRPKGTPRP
shrunken log2 fold change: 0.0309

RRIRPRPPRLPRPRPRPKHHPRP
shrunken log2 fold change: -0.228

RRIRPRPPRLPRPRPRPKHQPRP
shrunken log2 fold change: 0.0315

RRIRPRPPRLPRPRPRPKHWPRP
shrunken log2 fold change: 0.273

RRIRPRPPRLPRPRPRPKIDPRP
shrunken log2 fold change: 0.0162

RRIRPRPPRLPRPRPRPKISPRP
shrunken log2 fold change: -0.0927

RRIRPRPPRLPRPRPRPKKEPRP
shrunken log2 fold change: 0.0526

RRIRPRPPRLPRPRPRPKKLPRP
shrunken log2 fold change: -0.0688

RRIRPRPPRLPRPRPRPKKMPRP
shrunken log2 fold change: 2.39

RRIRPRPPRLPRPRPRPKMKPRP
shrunken log2 fold change: 1.05

RRIRPRPPRLPRPRPRPKMMPRP
shrunken log2 fold change: -0.032

RRIRPRPPRLPRPRPRPKNCPRP
shrunken log2 fold change: -0.238

RRIRPRPPRLPRPRPRPKNMPRP
shrunken log2 fold change: -0.436

RRIRPRPPRLPRPRPRPKNSPRP
shrunken log2 fold change: -0.144

RRIRPRPPRLPRPRPRPKPFPRP
shrunken log2 fold change: 0.129

RRIRPRPPRLPRPRPRPKPRPRP
shrunken log2 fold change: 0.502

RRIRPRPPRLPRPRPRPKQLPRP
shrunken log2 fold change: 0.0245

RRIRPRPPRLPRPRPRPKRDPRP
shrunken log2 fold change: 0.0476

RRIRPRPPRLPRPRPRPKTAPRP
shrunken log2 fold change: -0.109

RRIRPRPPRLPRPRPRPKTEPRP
shrunken log2 fold change: -0.217

RRIRPRPPRLPRPRPRPKTGPRP
shrunken log2 fold change: 0.186

RRIRPRPPRLPRPRPRPKTLPRP
shrunken log2 fold change: -0.0149

RRIRPRPPRLPRPRPRPKTNPRP
shrunken log2 fold change: 0.0176

RRIRPRPPRLPRPRPRPKVDPRP
shrunken log2 fold change: 0.0884

RRIRPRPPRLPRPRPRPKVGPRP
shrunken log2 fold change: 0.172

RRIRPRPPRLPRPRPRPKVSPRP
shrunken log2 fold change: 0.0436

RRIRPRPPRLPRPRPRPKWHPRP
shrunken log2 fold change: 0.173

RRIRPRPPRLPRPRPRPKWIPRP
shrunken log2 fold change: -0.465

RRIRPRPPRLPRPRPRPKWMPRP
shrunken log2 fold change: -0.158

RRIRPRPPRLPRPRPRPKYAPRP
shrunken log2 fold change: -0.102

RRIRPRPPRLPRPRPRPKYDPRP
shrunken log2 fold change: -0.612

RRIRPRPPRLPRPRPRPLAHPRP
shrunken log2 fold change: 0.183

RRIRPRPPRLPRPRPRPLALPRP
shrunken log2 fold change: 0.193

RRIRPRPPRLPRPRPRPLCKPRP
shrunken log2 fold change: 0.041

RRIRPRPPRLPRPRPRPLDNPRP
shrunken log2 fold change: -0.171

RRIRPRPPRLPRPRPRPLDRPRP
shrunken log2 fold change: -0.000978

RRIRPRPPRLPRPRPRPLEAPRP
shrunken log2 fold change: 0.249

RRIRPRPPRLPRPRPRPLEGPRP
shrunken log2 fold change: 0.179

RRIRPRPPRLPRPRPRPLEHPRP
shrunken log2 fold change: -0.565

RRIRPRPPRLPRPRPRPLEKPRP
shrunken log2 fold change: 0.261

RRIRPRPPRLPRPRPRPLFAPRP
shrunken log2 fold change: 0.206

RRIRPRPPRLPRPRPRPLFQPRP
shrunken log2 fold change: -0.0669

RRIRPRPPRLPRPRPRPLHNPRP
shrunken log2 fold change: -0.201

RRIRPRPPRLPRPRPRPLIFPRP
shrunken log2 fold change: -0.411

RRIRPRPPRLPRPRPRPLIMPRP
shrunken log2 fold change: -0.131

RRIRPRPPRLPRPRPRPLIRPRP
shrunken log2 fold change: -0.218

RRIRPRPPRLPRPRPRPLIWPRP
shrunken log2 fold change: 0.0601

RRIRPRPPRLPRPRPRPLKGPRP
shrunken log2 fold change: 0.045

RRIRPRPPRLPRPRPRPLKLPRP
shrunken log2 fold change: -0.267

RRIRPRPPRLPRPRPRPLKNPRP
shrunken log2 fold change: 0.186

RRIRPRPPRLPRPRPRPLLCPRP
shrunken log2 fold change: 0.127

RRIRPRPPRLPRPRPRPLLFPRP
shrunken log2 fold change: 0.0745

RRIRPRPPRLPRPRPRPLMSPRP
shrunken log2 fold change: -0.443

RRIRPRPPRLPRPRPRPLNAPRP
shrunken log2 fold change: -0.0965

RRIRPRPPRLPRPRPRPLPRPRP
shrunken log2 fold change: 0.443

RRIRPRPPRLPRPRPRPLQLPRP
shrunken log2 fold change: -0.0598

RRIRPRPPRLPRPRPRPLQWPRP
shrunken log2 fold change: -0.037

RRIRPRPPRLPRPRPRPLSCPRP
shrunken log2 fold change: -0.0219

RRIRPRPPRLPRPRPRPLTCPRP
shrunken log2 fold change: -0.191

RRIRPRPPRLPRPRPRPLWFPRP
shrunken log2 fold change: 0.173

RRIRPRPPRLPRPRPRPLWGPRP
shrunken log2 fold change: 0.232

RRIRPRPPRLPRPRPRPLWVPRP
shrunken log2 fold change: 0.165

RRIRPRPPRLPRPRPRPLYVPRP
shrunken log2 fold change: -0.433

RRIRPRPPRLPRPRPRPMADPRP
shrunken log2 fold change: 0.131

RRIRPRPPRLPRPRPRPMATPRP
shrunken log2 fold change: 0.323

RRIRPRPPRLPRPRPRPMCDPRP
shrunken log2 fold change: 0.164

RRIRPRPPRLPRPRPRPMCMPRP
shrunken log2 fold change: -0.32

RRIRPRPPRLPRPRPRPMDEPRP
shrunken log2 fold change: 0.119

RRIRPRPPRLPRPRPRPMDMPRP
shrunken log2 fold change: -0.784

RRIRPRPPRLPRPRPRPMDYPRP
shrunken log2 fold change: -0.165

RRIRPRPPRLPRPRPRPMGYPRP
shrunken log2 fold change: -0.0838

RRIRPRPPRLPRPRPRPMHAPRP
shrunken log2 fold change: 0.159

RRIRPRPPRLPRPRPRPMHSPRP
shrunken log2 fold change: 0.355

RRIRPRPPRLPRPRPRPMIEPRP
shrunken log2 fold change: -0.0882

RRIRPRPPRLPRPRPRPMIQPRP
shrunken log2 fold change: 0.0205

RRIRPRPPRLPRPRPRPMIRPRP
shrunken log2 fold change: 0.339

RRIRPRPPRLPRPRPRPMMAPRP
shrunken log2 fold change: 0.0466

RRIRPRPPRLPRPRPRPMMEPRP
shrunken log2 fold change: 0.0824

RRIRPRPPRLPRPRPRPMPRPRP
shrunken log2 fold change: 0.238

RRIRPRPPRLPRPRPRPMQFPRP
shrunken log2 fold change: 0.231

RRIRPRPPRLPRPRPRPMQQPRP
shrunken log2 fold change: -0.0524

RRIRPRPPRLPRPRPRPMQTPRP
shrunken log2 fold change: 0.119

RRIRPRPPRLPRPRPRPMREPRP
shrunken log2 fold change: 1.07

RRIRPRPPRLPRPRPRPMRGPRP
shrunken log2 fold change: 0.887

RRIRPRPPRLPRPRPRPMSHPRP
shrunken log2 fold change: 0.0914

RRIRPRPPRLPRPRPRPMTAPRP
shrunken log2 fold change: 0.162

RRIRPRPPRLPRPRPRPMTWPRP
shrunken log2 fold change: -0.00489

RRIRPRPPRLPRPRPRPMWHPRP
shrunken log2 fold change: -0.208

RRIRPRPPRLPRPRPRPMWNPRP
shrunken log2 fold change: -0.216

RRIRPRPPRLPRPRPRPMYDPRP
shrunken log2 fold change: -0.0348

RRIRPRPPRLPRPRPRPMYPPRP
shrunken log2 fold change: -0.135

RRIRPRPPRLPRPRPRPMYTPRP
shrunken log2 fold change: -0.236

RRIRPRPPRLPRPRPRPMYVPRP
shrunken log2 fold change: -1.06

RRIRPRPPRLPRPRPRPNAEPRP
shrunken log2 fold change: 0.154

RRIRPRPPRLPRPRPRPNAPPRP
shrunken log2 fold change: 0.0216

RRIRPRPPRLPRPRPRPNCVPRP
shrunken log2 fold change: -0.0731

RRIRPRPPRLPRPRPRPNDTPRP
shrunken log2 fold change: -0.338

RRIRPRPPRLPRPRPRPNEKPRP
shrunken log2 fold change: 0.023

RRIRPRPPRLPRPRPRPNERPRP
shrunken log2 fold change: 0.181

RRIRPRPPRLPRPRPRPNFDPRP
shrunken log2 fold change: -0.0128

RRIRPRPPRLPRPRPRPNFHPRP
shrunken log2 fold change: -0.169

RRIRPRPPRLPRPRPRPNGMPRP
shrunken log2 fold change: 0.171

RRIRPRPPRLPRPRPRPNINPRP
shrunken log2 fold change: -0.795

RRIRPRPPRLPRPRPRPNIRPRP
shrunken log2 fold change: -0.743

RRIRPRPPRLPRPRPRPNIWPRP
shrunken log2 fold change: -0.0307

RRIRPRPPRLPRPRPRPNKIPRP
shrunken log2 fold change: -0.203

RRIRPRPPRLPRPRPRPNLAPRP
shrunken log2 fold change: 0.294

RRIRPRPPRLPRPRPRPNLCPRP
shrunken log2 fold change: 0.138

RRIRPRPPRLPRPRPRPNLKPRP
shrunken log2 fold change: -0.0156

RRIRPRPPRLPRPRPRPNMGPRP
shrunken log2 fold change: -0.202

RRIRPRPPRLPRPRPRPNMHPRP
shrunken log2 fold change: -0.329

RRIRPRPPRLPRPRPRPNMSPRP
shrunken log2 fold change: -0.485

RRIRPRPPRLPRPRPRPNNYPRP
shrunken log2 fold change: -0.0307

RRIRPRPPRLPRPRPRPNPSPRP
shrunken log2 fold change: -0.138

RRIRPRPPRLPRPRPRPNRKPRP
shrunken log2 fold change: -0.371

RRIRPRPPRLPRPRPRPNSQPRP
shrunken log2 fold change: -0.314

RRIRPRPPRLPRPRPRPNVGPRP
shrunken log2 fold change: 0.0392

RRIRPRPPRLPRPRPRPNVLPRP
shrunken log2 fold change: -0.312

RRIRPRPPRLPRPRPRPNWVPRP
shrunken log2 fold change: -0.2

RRIRPRPPRLPRPRPRPPCMPRP
shrunken log2 fold change: -0.165

RRIRPRPPRLPRPRPRPPEQPRP
shrunken log2 fold change: 0.206

RRIRPRPPRLPRPRPRPPFGPRP
shrunken log2 fold change: 0.432

RRIRPRPPRLPRPRPRPPFIPRP
shrunken log2 fold change: -0.0606

RRIRPRPPRLPRPRPRPPFTPRP
shrunken log2 fold change: 0.185

RRIRPRPPRLPRPRPRPPGDPRP
shrunken log2 fold change: 0.567
